The text below walks through data of publication PMC9121323, “Using fluorescence anisotropy to monitor chaperone dispersal of RNA-binding protein condensates”.

In this series the target is Pab1 monomer (poly(A)-binding protein) (Saccharomyces cerevisiae, UniProt P04147 1-577). Nature of the series: fluorescence anisotropy; monomer calibration, titration regime; Kd cannot be determined; 1x disaggregation buffer (composition not in the material), 30 C, 15 uL samples, fluorescein ex/em 485/535 nm; 0.2 uM A19 RNA used for gain setting. As to conditions: protein: recombinant; tags: 8xHis-TEV site tag, removed by TEV protease; label: 5' 6-FAM; single strand.
Chain of Pab1 monomer (poly(A)-binding protein) (P04147 whole entry): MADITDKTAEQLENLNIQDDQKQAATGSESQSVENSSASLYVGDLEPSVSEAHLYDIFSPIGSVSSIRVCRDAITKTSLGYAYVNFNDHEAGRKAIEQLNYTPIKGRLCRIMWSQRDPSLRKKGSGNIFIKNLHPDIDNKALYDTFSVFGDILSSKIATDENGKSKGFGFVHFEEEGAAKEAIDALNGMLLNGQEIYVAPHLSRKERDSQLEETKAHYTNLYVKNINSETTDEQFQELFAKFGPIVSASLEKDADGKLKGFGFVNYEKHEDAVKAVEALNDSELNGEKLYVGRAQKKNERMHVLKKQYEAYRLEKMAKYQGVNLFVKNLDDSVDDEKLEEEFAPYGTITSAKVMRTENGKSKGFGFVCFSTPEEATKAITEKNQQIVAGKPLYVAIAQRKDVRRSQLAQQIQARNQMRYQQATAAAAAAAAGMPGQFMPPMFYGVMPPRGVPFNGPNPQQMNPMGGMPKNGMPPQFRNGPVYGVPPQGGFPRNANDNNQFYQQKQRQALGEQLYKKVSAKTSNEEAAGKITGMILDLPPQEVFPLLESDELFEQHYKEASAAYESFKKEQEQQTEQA

As to AAAAAAAAAAAAAAAAAAA (ssRNA) [Fluorescein-A19 RNA], the binding result is reported as “binds”.
